Patent US20200024358A1 (published 2020)

Tests used:
[1] = molecular target: T1, extracellular domain of human PD-L1 (Example 8) (human, UniProt Q9NZQ7 19-238); assay: Kinetic Exclusion Assay (KinExA 3200)
T1 construct: extracellular domain; also called PD-L1 antigen; immobilized PD-L1
Protocol: Studies were designed to measure the free antibody in samples with a fixed antibody concentration and different concentrations of antigen PD-L1 at equilibrium, reaction mixtures were performed in PBS (pH 7.4) with 1 mg/ml BSA. […] The equilibrium titration and kinetics data were fit to a 1:1 reversible binding model using KinExA Pro software (version 4.2.10; Sapidyne Instruments) to determine the Kd.

[2] = molecular target: T1, extracellular domain of human PD-L1 …; assay: competition ELISA in solution (Friguet), Scatchard plot
Protocol: First, mixtures of the trispecific antibody (Ab) at a fixed concentration and the PD-L1 antigen (Ag) at varying concentrations were incubated for sufficient time to reach equilibrium. Then the concentration of trispecific antibody, which remained unsaturated at equilibrium (not associated with PD-L1 antigen), was measured by a classical indirect ELISA using PD-L1 coated plates. […] The Kd was calculated from a Scatchard plot using the following equation:

[3] = molecular target: T2, recombinant Human BCMA Fc Chimera (produced in-house via transient expression in HEK293-6E cells) (human, UniProt Q02223 1-54); assay: dual-binding ELISA: BCMA Fc coated, then CD3 epsilon His, anti-His detection
T2 construct: not shown: Fc part of the chimera
T2 sequence (looked up): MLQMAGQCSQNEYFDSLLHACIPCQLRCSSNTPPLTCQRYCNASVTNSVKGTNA

[4] = molecular target: T3, recombinant human CD3 epsilon His-tag protein (Novoprotein, Cat. No. C578) (human, UniProt P07766 23-126); assay: as above
T3 construct: Bought protein; not shown: His-tag
T3 sequence (P07766 23-126): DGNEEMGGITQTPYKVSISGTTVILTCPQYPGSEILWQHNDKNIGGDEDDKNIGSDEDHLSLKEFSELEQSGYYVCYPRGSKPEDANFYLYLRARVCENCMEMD

T1 sequence (Q9NZQ7 19-238): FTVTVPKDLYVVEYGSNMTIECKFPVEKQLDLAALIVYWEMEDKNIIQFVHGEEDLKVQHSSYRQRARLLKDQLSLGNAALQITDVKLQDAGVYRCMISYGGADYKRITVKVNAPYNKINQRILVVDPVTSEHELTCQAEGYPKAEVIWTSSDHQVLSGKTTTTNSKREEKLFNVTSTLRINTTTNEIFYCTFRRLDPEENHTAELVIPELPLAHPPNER

B1: CDR1-017 (other)
heavy: QIQLVQSGPELKKPGETVKISCKASGYTFTDYSINWVKRAPGKGLKWMGWINTETREPAYAYDFRGRFAFSLETSASTAYLQINNLKYEDTATYFCALDYSYAMDYWGQGTSVTVSSASTKGPSVFPLAPSSKSTSGGTAALGCLVKDYFPEPVTVSWNSGALTSGVHTFPAVLQSSGLYSLSSVVTVPSSSLGTQTYICNVNHKPSNTKVDKRVEPKSCGGGGSEIVMTQSPSTLSASVGDRVIITCQASEDIYSLLAWYQQKPGKAPKLLIYDASDLASGVPSRFSGSGSGAEFTLTISSLQPDDSATYYCQGNYGSSSSSSYGAVFGQGTKLTVLGGGGGSGGGGSGGGGSGGGGSEVQLVESGGGSVQPGGSLRLSCTVSGIDLSSYTMGWVRQAPGKGLEWVGIISSGGRTYYASWAKGRFTISRDTSKNTVYLQMNSLRAEDTATYYCARGAYTGYPYYFALWGQGTTVTVSS
light: DIVLTQSPASLAMSLGKRATISCRASESVSVIGAHLIHWYQQKPGQPPKLLIYLASNLETGVPARFSGSGSGTDFTLTIDPVEEDDVAIYSCLQSRIFPRTFGGGTKLEIKRTVAAPSVFIFPPSDEQLKSGTASVVCLLNNFYPREAKVQWKVDNALQSGNSQESVTEQDSKDSTYSLSSTLTLSKADYEKHKVYACEVTHQGLSSPVTKSFNRGECGGGGSAVVTQEPSLTVSPGGTVTLTCGSSTGAVTTSNYANWVQQKPGKSPRGLIGGTNKRAPGVPARFSGSLLGGKAALTISGAQPEDEADYYCALWYSNHWVFGGGTKLTVLGGGGGSGGGGSGGGGSGGGGSEVQLVESGGGSVQPGGSLRLSCAASGFTFSTYAMNWVRQAPGKGLEWVGRIRSKANNYATYYADSVKGRFTISRDDSKNTLYLQMNSLRAEDTATYYCVRHGNFGDSYVSWFAYWGQGTTVTVSS
notes: also called trispecific CDR1-017
- fold difference in affinity against CDR1-007 (WT) [1]: ~1000 fold
- Kd [2]: 26 nM

B2: CDR1-005 (bispecific antibody)
heavy: QIQLVQSGPELKKPGETVKISCKASGYTFTDYSINWVKRAPGKGLKWMGWINTETREPAYAYDFRGRFAFSLETSASTAYLQINNLKYEDTATYFCALDYSYAMDYWGQGTSVTVSSASTKGPSVFPLAPSSKSTSGGTAALGCLVKDYFPEPVTVSWNSGALTSGVHTFPAVLQSSGLYSLSSVVTVPSSSLGTQTYICNVNHKPSNTKVDKRVEPKSC
light: DIVLTQSPASLAMSLGKRATISCRASESVSVIGAHLIHWYQQKPGQPPKLLIYLASNLETGVPARFSGSGSGTDFTLTIDPVEEDDVAIYSCLQSRIFPRTFGGGTKLEIKRTVAAPSVFIFPPSDEQLKSGTASVVCLLNNFYPREAKVQWKVDNALQSGNSQESVTEQDSKDSTYSLSSTLTLSKADYEKHKVYACEVTHQGLSSPVTKSFNRGECGGGGSAVVTQEPSLTVSPGGTVTLTCGSSTGAVTTSNYANWVQQKPGKSPRGLIGGTNKRAPGVPARFSGSLLGGKAALTISGAQPEDEADYYCALWYSNHWVFGGGTKLTVLGGGGGSGGGGSGGGGSGGGGSEVQLVESGGGSVQPGGSLRLSCAASGFTFSTYAMNWVRQAPGKGLEWVGRIRSKANNYATYYADSVKGRFTISRDDSKNTLYLQMNSLRAEDTATYYCVRHGNFGDSYVSWFAYWGQGTTVTVSS
- binding result [3]: binds
- binding result [4]: binds

B3: CDR1-008 (bispecific antibody)
scFv: DIVLTQSPASLAMSLGKRATISCRASESVSVIGAHLIHWYQQKPGQPPKLLIYLASNLETGVPARFSGSGSGTDFTLTIDPVEEDDVAIYSCLQSRIFPRTFGGGTKLEIKGGGGSGGGGSGGGGSGGGGSQIQLVQSGPELKKPGETVKISCKASGYTFTDYSINWVKRAPGKGLKWMGWINTETREPAYAYDFRGRFAFSLETSASTAYLQINNLKYEDTATYFCALDYSYAMDYWGQGTSVTVSSGGGGSAVVTQEPSLTVSPGGTVTLTCGSSTGAVTTSNYANWVQQKPGKSPRGLIGGTNKRAPGVPARFSGSLLGGKAALTISGAQPEDEADYYCALWYSNHWVFGGGTKLTVLGGGGGSGGGGSGGGGSGGGGSEVQLVESGGGSVQPGGSLRLSCAASGFTFSTYAMNWVRQAPGKGLEWVGRIRSKANNYATYYADSVKGRFTISRDDSKNTLYLQMNSLRAEDTATYYCVRHGNFGDSYVSWFAYWGQGTTVTVSS
notes: also called bispecific tandem scFv BCMA/CD3; scFv BCMA/scFv CD3 BiTE
- binding result [3]: binds
- binding result [4]: binds
